{
  "source": "patent US20170067045A1",
  "about": "(Bicycle, published 2017)",
  "binders": {"B1": {"name": "PEP48-3s1 conjugated with THME(IAc3), HPLC peak / stereoisomer with affinity 640 nM (peptide)", "peptide": "SDDCVRFGWTCPTVMCG", "modifications": "linker 4-11-16 via THME(IAc3); also: one of two stereoisomers (HPLC peaks), not assigned", "notes": "One of two HPLC peaks of identical mass (expected stereoisomers); also called PEP48-3s1-THME(IAc3)"}, "B2": {"name": "oxidized PK15-TBMB (sulphoxides, +3 oxygen atoms) (peptide)", "peptide": "ACSDRFRNCPADEALCG", "modifications": "linker 2-9-16 via TBMB; also: thioether links to TBMB oxidised to sulphoxides (stereoisomer mixture)"}, "B3": {"name": "oxidized PK15-TBMB (sulphone) (peptide)", "peptide": "ACSDRFRNCPADEALCG", "modifications": "linker 2-9-16 via TBMB; also: thioether links to TBMB oxidised to sulphones"}, "B4": {"name": "PEP10 synthetic peptide conjugated with TBMB (peptide)", "peptide": "H-SCELWNPKCRLSPFECKG-OH", "modifications": "linker 2-9-16 via TBMB", "notes": "The anisotropy paragraph says only 'peptides 10, 48'; also called peptide 10"}, "B5": {"name": "PEP48-3s1 conjugate (TBMB) (peptide)", "peptide": "SDDCVRFGWTCPTVMCG", "modifications": "linker 4-11-16 via TBMB", "notes": "PEP48 derivative with the second loop re-selected"}, "B6": {"name": "PK15-TBMB (peptide)", "peptide": "ACSDRFRNCPADEALCG", "modifications": "linker 2-9-16 via TBMB"}, "B7": {"name": "PEP48 synthetic peptide conjugated with TBMB (peptide)", "peptide": "H-SCVRFGWTCDNSWHGCKG-OH", "modifications": "linker 2-9-16 via TBMB", "notes": "The anisotropy paragraph says only 'peptides 10, 48'; also called peptide 48"}, "B8": {"name": "PK15 conjugated with tris(bromoethyl)mesitylene (peptide)", "peptide": "ACSDRFRNCPADEALCG", "modifications": "linker 2-9-16 via tris(bromoethyl)mesitylene"}, "B9": {"name": "PK15 conjugated with tris(bromomethyl)mesitylene (peptide)", "peptide": "ACSDRFRNCPADEALCG", "modifications": "linker 2-9-16 via tris(bromomethyl)mesitylene"}, "B10": {"name": "PK15 with central cysteine altered to methionine, TBMB conjugate, second of two HPLC products (peptide)", "peptide": "ACSDRFRNMPADEALCG", "modifications": "both cysteines and the single methionine conjugated to TBMB"}, "B11": {"name": "PEP48-3s1 conjugated with THME(IAc3), HPLC peak / stereoisomer with affinity 1600 nM (peptide)", "peptide": "SDDCVRFGWTCPTVMCG", "modifications": "linker 4-11-16 via THME(IAc3); also: one of two stereoisomers (HPLC peaks), not assigned", "notes": "The other of two HPLC peaks of identical mass (expected stereoisomers); also called PEP48-3s1-THME(IAc3)"}, "B12": {"name": "PK15 with central cysteine altered to methionine, TBMB conjugate, first of two HPLC products (peptide)", "peptide": "ACSDRFRNMPADEALCG", "modifications": "both cysteines and the single methionine conjugated to TBMB"}},
  "key": {"[1]": {"target": "T1, MDM2 (res 2-125) (UniProt Q00987 2-125)", "T1 construct": "range 2-125; Titrant in the fluorescence anisotropy experiments", "T1 sequence (Q00987 2-125 limits assumed)": "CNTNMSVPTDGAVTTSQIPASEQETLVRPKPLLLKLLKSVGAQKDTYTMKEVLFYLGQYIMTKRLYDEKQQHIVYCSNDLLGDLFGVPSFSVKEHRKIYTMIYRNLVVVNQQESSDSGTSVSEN", "assay": "fluorescence anisotropy"}, "[2]": {"target": "kallikrein (UniProt P03952 20-638, limits assumed)", "sequence (P03952 20-638 limits assumed)": "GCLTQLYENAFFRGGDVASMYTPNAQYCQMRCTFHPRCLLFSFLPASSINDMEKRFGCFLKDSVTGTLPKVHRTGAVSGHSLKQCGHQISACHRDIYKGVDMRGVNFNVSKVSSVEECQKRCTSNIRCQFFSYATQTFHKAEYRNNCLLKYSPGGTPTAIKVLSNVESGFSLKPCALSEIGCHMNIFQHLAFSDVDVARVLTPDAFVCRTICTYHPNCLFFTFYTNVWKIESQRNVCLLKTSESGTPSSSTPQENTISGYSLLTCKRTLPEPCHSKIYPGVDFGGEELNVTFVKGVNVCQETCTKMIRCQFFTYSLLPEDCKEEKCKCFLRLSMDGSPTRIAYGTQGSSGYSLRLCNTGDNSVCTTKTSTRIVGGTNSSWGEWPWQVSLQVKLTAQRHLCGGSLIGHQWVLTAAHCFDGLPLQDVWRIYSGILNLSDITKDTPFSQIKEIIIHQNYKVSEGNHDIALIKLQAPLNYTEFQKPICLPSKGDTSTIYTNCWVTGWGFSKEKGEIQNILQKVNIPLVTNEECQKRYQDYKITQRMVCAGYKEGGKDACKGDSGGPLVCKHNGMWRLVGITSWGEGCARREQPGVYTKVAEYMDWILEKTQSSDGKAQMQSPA", "assay": "cell-based or functional assay"}, "[3]": {"target": "T1, MDM2 (res 2-125)", "assay": "fluorescence anisotropy titration, excitation 295 nm, 23 C, PBS, 5 mM DTT", "experimental": "(§1) Titration experiments were run on a Horiba Jobin Yvon fluorimeter equipped with the Hamilton Microlab titrator controlled by laboratory software. The λₑₓ and λₑₘ used were 295 nm and 350 nm, respectively. The slit widths for excitation and emission were 5 nm and 15 nm and the integration time 1 Os was used for each measurement. […] The experiments were performed at 23° C. in PBS, 5 mM DTT. […] Titration data were analyzed with a standard 1:1 binding model by using the quadratic solution to the equilibrium Kd=[A][B]/[AB]. […] The fitting equation contained an extra term to account for linear drift."}, "[4]": {"target": "T1, MDM2 (res 2-125)", "assay": "fluorescence anisotropy titration (intrinsic Trp fluorescence), 23 C, PBS, 5 mM DTT", "experimental": "as §1"}, "[5]": {"target": "T1, MDM2 (res 2-125)", "assay": "fluorescence anisotropy titration, excitation 280 nm, 23 C, PBS, 5 mM DTT"}},
  "note": "*1 amine or outer side, *2 acyl side, *3 side chain or, on linkers, in order; H or OH if unused. Bridges are numbered along the chain shown (N, C = ends). Where no end group is shown, it is not given here. tris(bromomethyl)mesitylene = scaffold as named in the source, Cc1c(C[*:1])c(C)c(C[*:3])c(C)c1C[*:2]; THME(IAc3) = trishydroxymethylethane trisiodoacetate, CC(COC(=O)C[*:1])(COC(=O)C[*:2])COC(=O)C[*:3]; TBMB = c1c(C[*:1])cc(C[*:3])cc1C[*:2]",
  "data": [
    {"binder": "B1", "values": [
      {"measurement": "Kd", "setting": "[1]", "result": 0.64, "unit": "µM"}
    ]},
    {"binder": "B2", "values": [
      {"measurement": "IC50 of inhibition of kallikrein (Z-Phe-Arg-AMC substrate, fluorescence)", "setting": "[2]", "result": "~2.4", "unit": "µM"}
    ]},
    {"binder": "B3", "values": [
      {"measurement": "IC50 of inhibition of kallikrein (Z-Phe-Arg-AMC substrate, fluorescence)", "setting": "[2]", "result": 1.3, "unit": "µM"}
    ]},
    {"binder": "B4", "values": [
      {"measurement": "Kd", "setting": "[3]", "result": 0.267, "unit": "µM"},
      {"measurement": "Kd", "setting": "[4]", "result": "0.25 to 0.75", "unit": "µM"}
    ]},
    {"binder": "B5", "values": [
      {"measurement": "Kd", "setting": "[1]", "result": "0.027 to 0.1", "unit": "µM"}
    ]},
    {"binder": "B6", "values": [
      {"measurement": "IC50 of inhibition of kallikrein (Z-Phe-Arg-AMC substrate, fluorescence)", "setting": "[2]", "result": 0.013, "unit": "µM"}
    ]},
    {"binder": "B7", "values": [
      {"measurement": "Kd", "setting": "[5]", "result": 0.76, "unit": "µM"},
      {"measurement": "Kd", "setting": "[3]", "result": 0.567, "unit": "µM"},
      {"measurement": "Kd", "setting": "[4]", "result": "0.25 to 0.75", "unit": "µM"}
    ]},
    {"binder": "B8", "values": [
      {"measurement": "IC50 of inhibition of kallikrein (Z-Phe-Arg-AMC substrate, fluorescence)", "setting": "[2]", "result": "~0.4", "unit": "µM"}
    ]},
    {"binder": "B9", "values": [
      {"measurement": "IC50 of inhibition of kallikrein (Z-Phe-Arg-AMC substrate, fluorescence)", "setting": "[2]", "result": 0.15, "unit": "µM"}
    ]},
    {"binder": "B10", "values": [
      {"measurement": "IC50 of inhibition of kallikrein activity", "setting": "[2]", "result": "> 10", "unit": "µM"}
    ]},
    {"binder": "B11", "values": [
      {"measurement": "Kd", "setting": "[1]", "result": 1.6, "unit": "µM"}
    ]},
    {"binder": "B12", "values": [
      {"measurement": "IC50 of inhibition of kallikrein activity", "setting": "[2]", "result": "> 10", "unit": "µM"}
    ]}
  ]
}
